T1: FcγRIIb α subunit ECD-6His-GST fusion protein (UniProt P31994 43-217)
T1 construct: Expressed in 293 cells; also called FcγRIlb; not shown: glutathione S transferase (GST)
T1 sequence: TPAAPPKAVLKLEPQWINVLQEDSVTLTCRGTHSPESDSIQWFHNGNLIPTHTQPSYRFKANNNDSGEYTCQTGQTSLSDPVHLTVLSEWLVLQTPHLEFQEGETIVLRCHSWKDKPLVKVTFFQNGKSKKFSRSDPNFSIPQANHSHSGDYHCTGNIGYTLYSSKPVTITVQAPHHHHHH

T2: FcγRIIa α subunit ECD-6His-GST fusion protein (UniProt P12318 34-217)
T2 construct: Expressed in 293 cells; not shown: glutathione S transferase (GST)
T2 sequence: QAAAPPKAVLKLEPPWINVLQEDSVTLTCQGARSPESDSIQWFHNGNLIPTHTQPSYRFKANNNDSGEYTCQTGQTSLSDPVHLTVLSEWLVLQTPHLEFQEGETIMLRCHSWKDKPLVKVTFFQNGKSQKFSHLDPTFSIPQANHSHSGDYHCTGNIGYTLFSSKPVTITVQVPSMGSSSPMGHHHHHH

B1: E27 anti-IgE antibody, wild type (humanized IgG1) (antibody)
heavy: not shown
light: DIQLTQSPSSLSASVGDRVTITCRASKPVDGEGDSYMNWYQQKPGKAPKLLIYAASYLESGVPSRFSGSGSGTDFTLTISSLQPEDFATYYCQQSHEDPYTFGQGTKVEIKRTVAAPSVFIFPPSDEQLKSGTASVVCLLNNFYPREAKVQWKVDNALQSGNSQESVTEQDSKDSTYSLSSTLTLSKADYEKHKVYACEVTHQGLSSPVTKSFNRGEC
notes: In the FcγRIIa, FcγRIIb and FcγRIIIa ELISAs it stood as an immune complex E27:chimeric IgE:VEGF (1:1:2); in the FcγRI ELISA as monomeric IgG; also called recombinant anti-IgE E27; wt
B2: E27 anti-IgE antibody mutant K320A (antibody)
heavy: not shown
light: B1 light
notes: also called K320A (E27 background)
B3: E27 anti-IgE antibody mutant P329A (antibody)
heavy: not shown
light: B1 light
notes: also called P329A (E27 background)
B4: E27 anti-IgE antibody mutant E318A (antibody)
heavy: not shown
light: B1 light
notes: also called E318A (E27 background)
B5: E27 anti-IgE antibody mutant P331A (antibody)
heavy: not shown
light: B1 light
notes: also called P331A (E27 background)
B6: E27 anti-IgE antibody mutant K322A (antibody)
heavy: not shown
light: B1 light
notes: also called K322A (E27 background)

Biological target: T1, FcγRIIb α subunit ECD-6His-GST fusion …
Assay: ELISA, E27:chimeric IgE:VEGF (1:1:2) immune complex on plate-coated receptor ECD-6His-GST

Row | binding as a percentage of the wild type | Binder
1 | 100 % of wild type | B1
2 | 83 % of wild type | B2
3 | 96 % of wild type | B3
4 | 106 % of wild type | B4
5 | 58 % of wild type | B5
6 | 101 % of wild type | B6

Biological target: T3, FcγRIIIa α subunit ECD-6His-GST fusion protein (UniProt P08637 17-208)
T3 construct: Expressed in 293 cells; also called FcγIII; FcγIIIa; not shown: glutathione S transferase (GST)
T3 sequence (P08637 other isoform, or with tags, fused parts or gaps, form in doubt): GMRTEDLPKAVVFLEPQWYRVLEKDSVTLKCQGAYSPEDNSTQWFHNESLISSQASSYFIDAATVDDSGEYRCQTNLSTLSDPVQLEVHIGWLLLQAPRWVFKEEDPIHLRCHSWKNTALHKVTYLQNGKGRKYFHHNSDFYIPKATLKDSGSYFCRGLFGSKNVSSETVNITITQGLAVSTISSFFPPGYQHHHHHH
Assay: as above

Row | binding as a percentage of the wild type | Binder
7 | 100 % of wild type | B1
8 | 72 % of wild type | B2
9 | 85 % of wild type | B3
10 | 104 % of wild type | B4
11 | 73 % of wild type | B5
12 | 90 % of wild type | B6

Biological target: T2, FcγRIIa α subunit ECD-6His-GST fusion …
Assay: as above

Row | binding as a percentage of the wild type | Binder
13 | 100 % of wild type | B1
14 | 94 % of wild type | B2
15 | 111 % of wild type | B3
16 | 113 % of wild type | B4
17 | 86 % of wild type | B5
18 | 109 % of wild type | B6

Biological target: T4, FcγRI α subunit-GST fusion (UniProt P12314 16-292)
T4 construct: ECD-6His-GST fusion expressed in 293 cells; not shown: glutathione S transferase (GST)
T4 sequence (P12314 other isoform, or with tags, fused parts or gaps, form in doubt): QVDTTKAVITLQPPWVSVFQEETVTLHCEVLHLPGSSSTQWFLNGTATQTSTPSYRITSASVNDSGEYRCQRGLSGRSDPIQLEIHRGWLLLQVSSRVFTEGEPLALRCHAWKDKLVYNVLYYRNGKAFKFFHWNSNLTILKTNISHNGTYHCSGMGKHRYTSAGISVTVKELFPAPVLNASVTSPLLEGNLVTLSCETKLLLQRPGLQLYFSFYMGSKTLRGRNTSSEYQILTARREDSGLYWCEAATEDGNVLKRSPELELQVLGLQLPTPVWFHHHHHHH
Assay: ELISA, monomeric IgG at 10 ug/ml on plate-coated FcγRI α subunit-GST fusion

Row | binding as a percentage of the wild type | Binder
19 | 100 % of wild type | B1
20 | 102 % of wild type | B2
21 | 104 % of wild type | B3
22 | 93 % of wild type | B4
23 | 74 % of wild type | B5
24 | 90 % of wild type | B6
